The results in this text go back to US11491212.

Factor X, P00742, sequence (P00742 whole entry, looked up): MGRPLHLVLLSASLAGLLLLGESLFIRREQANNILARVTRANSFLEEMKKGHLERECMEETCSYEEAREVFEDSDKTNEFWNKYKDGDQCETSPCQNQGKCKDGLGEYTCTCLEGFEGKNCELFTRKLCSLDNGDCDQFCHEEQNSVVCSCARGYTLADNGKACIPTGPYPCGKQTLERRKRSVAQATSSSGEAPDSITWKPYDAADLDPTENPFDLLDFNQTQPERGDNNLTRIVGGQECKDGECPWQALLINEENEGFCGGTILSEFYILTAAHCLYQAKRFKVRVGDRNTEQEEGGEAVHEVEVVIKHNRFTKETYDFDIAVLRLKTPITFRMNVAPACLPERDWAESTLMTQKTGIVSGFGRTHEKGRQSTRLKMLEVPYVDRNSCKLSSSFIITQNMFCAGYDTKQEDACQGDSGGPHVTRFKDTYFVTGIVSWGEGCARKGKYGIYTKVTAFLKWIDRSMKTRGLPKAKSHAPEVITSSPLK
Factor X (FX), P00742, sequence (P00742 whole entry, looked up): as above

B1: FIXa-D104N/K106S/R318Y/R338E/T343R/R403E/E410N (protein)
chain 1: not shown
chain 2: not shown
As for B1, in the data set with Factor X (FX), P00742, the Michaelis constant (KM) came to 0.0266 µM and the kcat was found to be 5.7 s⁻¹. Moreover, the kcat/KM in the data set with Factor X, P00742 came out at 2.2e+08 M⁻¹ s⁻¹.

B2: FIXa-Y155F/R318Y/R338E/T343R/R403E/E410N (protein)
chain 1: not shown
chain 2: not shown
Take B2: in the data set with Factor X (FX), P00742, the KM came out at 0.0272 µM and the turnover number (kcat) is 7.8 s⁻¹. Moreover, the kcat/KM with Factor X, P00742 amounted to 3e+08 M⁻¹ s⁻¹.

B3: FIXa-R318Y/R338E/N346Y/R403E/E410N (protein)
chain 1: not shown
chain 2: not shown
As for B3, in the data set with Factor X (FX), P00742, the KM turned out to be 0.0281 µM and the catalytic constant (kcat) is 3.4 s⁻¹. For the same protein, in the data set with Factor X, P00742, the kcat/KM amounted to 1.2e+08 M⁻¹ s⁻¹.

B4: FIXa-R318Y/R338E/T343R/R403E/E410N (protein)
chain 1: not shown
chain 2: not shown
Regarding B4, in the data set with Factor X (FX), P00742, the “% of WT kcat/KM (against Catalyst Biosciences WT FIXa), FX activation in the Xase complex” value (from here on “% of WT kcat/KM”) amounted to 1217%; the KM was 0.0247 µM; the KM (nM) for activation of FX by FIXa in the Xase complex (FVIIIa, PC/PS vesicles, Ca2+), fluorogenic Spectrafluor FXa assay turned out to be 22.3 nM; the catalytic constant (kcat) was 9.7 s⁻¹. Further, the kcat/KM for FX activation by FIXa in the Xase complex (FVIIIa, PC/PS vesicles, Ca2+), indirect fluorogenic Spectrafluor FXa assay with Factor X (FX), P00742 worked out at 5.4e+08 M⁻¹ s⁻¹. For the same protein, the catalytic efficiency (kcat/KM) in the data set with Factor X, P00742 stood at 4.2e+08 M⁻¹ s⁻¹.

B5: FIXa-R318Y/R338E/Y345A/R403E/E410N (protein)
chain 1: not shown
chain 2: not shown
As for B5, in the data set with Factor X (FX), P00742, the KM is 0.0188 µM and the turnover number (kcat) was 1.4 s⁻¹. Also, the catalytic efficiency (kcat/KM) with Factor X, P00742 came out at 8.3e+07 M⁻¹ s⁻¹.

B6: FIXa-R318Y/R338E/E410N/T412V (protein)
chain 1: not shown
chain 2: not shown
For B6, in the data set with Factor X (FX), P00742, the “% of WT kcat/KM” value worked out at 536%; the KM was 0.0236 µM; the turnover number (kcat) was 5.2 s⁻¹; the kcat/KM for FX activation by FIXa in the Xase complex (FVIIIa, PC/PS vesicles, Ca2+), indirect fluorogenic Spectrafluor FXa assay came out at 2.4e+08 M⁻¹ s⁻¹. Besides, the kcat/KM with Factor X, P00742 was 2.6e+08 M⁻¹ s⁻¹.

B7: FIXa-K247N/N249S/N260S/R318Y/R338E/R403E/E410N (protein)
chain 1: not shown
chain 2: not shown
For the protein B7, in the data set with Factor X (FX), P00742, the “% of WT kcat/KM” value came to 217%; the Michaelis constant (KM) was 0.0474 µM; the KM (nM) for activation of FX by FIXa in the Xase complex (FVIIIa, PC/PS vesicles, Ca2+), fluorogenic Spectrafluor FXa assay came out at 62.2 nM; the turnover number (kcat) came to 3.4 s⁻¹. Moreover, the kcat/KM for FX activation by FIXa in the Xase complex (FVIIIa, PC/PS vesicles, Ca2+), indirect fluorogenic Spectrafluor FXa assay with Factor X (FX), P00742 stood at 9.7e+07 M⁻¹ s⁻¹. Further, the kcat/KM with Factor X, P00742 was 6.7e+07 M⁻¹ s⁻¹.

B8: FIXa-R318Y/R338E/T343R/N346D/R403E/E410N (protein)
chain 1: not shown
chain 2: not shown
As to B8, in the data set with Factor X (FX), P00742, the KM came out at 0.067 µM and the catalytic constant (kcat) is 5.4 s⁻¹. In the data set with Factor X, P00742, the kcat/KM stood at 8.2e+07 M⁻¹ s⁻¹.

B9: FIXa-D104N/K106S/K228N/K247N/N249S/R318Y/R338E/R403E/E410N (protein)
chain 1: not shown
chain 2: not shown
Regarding B9, the KM with Factor X (FX), P00742 was 0.0533 µM. In the data set with Factor X, P00742, the kcat stood at 6.1 s⁻¹ and the kcat/KM amounted to 1.1e+08 M⁻¹ s⁻¹.

B10: FIXa-R318Y/R338E/T343R/N346Y/R403E/E410N (protein)
chain 1: not shown
chain 2: not shown
For the protein B10, in the data set with Factor X (FX), P00742, the Michaelis-Menten constant (KM) was found to be 0.0158 µM and the catalytic constant (kcat) is 4.6 s⁻¹. Besides, the kcat/KM with Factor X, P00742 amounted to 3.1e+08 M⁻¹ s⁻¹.

B11: FIXa-R318Y/R338E/R403E/E410N/T412A (protein)
chain 1: not shown
chain 2: not shown
In the case of B11, in the data set with Factor X (FX), P00742, the Michaelis constant (KM) is 0.0344 µM and the kcat was 7.8 s⁻¹. Moreover, the catalytic efficiency (kcat/KM) in the data set with Factor X, P00742 came out at 2.5e+08 M⁻¹ s⁻¹.

B12: FIXa-R318Y/R338E/R403E/E410N/T412V (protein)
chain 1: not shown
chain 2: not shown
In the case of B12, in the data set with Factor X (FX), P00742, the Michaelis-Menten constant (KM) was 0.0483 µM and the catalytic constant (kcat) worked out at 7 s⁻¹. Moreover, in the data set with Factor X, P00742, the catalytic efficiency (kcat/KM) was 1.6e+08 M⁻¹ s⁻¹.

One may read the KM as the concentration of substrate that gives half-maximal velocity. For orientation: kcat means the maximal rate divided by the concentration of active sites. One may read the kcat/KM as the second-order rate constant that governs catalysis at low substrate concentration.
